The values that follow come from PMC5855441, “Detection of Thrombin Based on Fluorescence Energy Transfer between Semiconducting Polymer Dots and BHQ-Labelled Aptamers”.

In this data set the target is thrombin (UniProt P00734;P00734 328-363;364-622). Briefly: fluorescence turn-on (FRET Pdots to BHQ-aptamer); 130 nM thrombin, Pdots present; F/F0 = 6.5; Buffer, salt and pH not given in the material (Hepes listed as reagent); incubation 60 min; Pdots-BHQ-TBA quenching plot at 298 K.

B1: BHQ-TBA (BHQ-labelled thrombin aptamer) (ssDNA)
DNA: GGTTGGTGTGGTTGG
As to B1, the binding result is “binds”.
